Laboratory results from patent US20190262327A1, “COMBINATION OF A BACE INHIBITOR AND AN ANTIBODY OR ANTIGEN-BINDING FRAGMENT FOR THE TREATMENT OF A DISORDER ASSOCIATED WITH THE ACCUMULATION OF AMYLOID BETA” (ASTRAZENECA AB, priority 2016, published 2019).

Assays:
[1] = target: T1, human Amyloid beta 1-42 peptide (Homo sapiens, UniProt P05067); experiment: Surface Plasmon Resonance binding kinetics of IgGs (BIAcore T-100); settings: IgG1-TM captured on protein G; 1:1 Langmuir fit
T1 construct: biotinylated human Amyloid beta 1-42 peptide (rpeptide, USA; cat: A1117); purchased rPeptide, USA A1117; host or cells: synthetic peptide
Procedure: Surface Plasmon Resonance was used to analyse the binding kinetics of the affinity-optimized IgGs (section 1.8) and their germlined counterparts (section 1.9). Briefly, the BIAcore T-100 (GE Healthcare, UK) biosensor instrument was used to assess the kinetic parameters of the interaction between each test IgG and synthetically-produced human Amyloid beta 1-42 peptide. These experiments were performed essentially as described by Karsson et al. (Karlsson et al., 1991).
The affinity of binding between each test IgG and human Amyloid beta 1-42 was estimated using assays in which each antibody was non-covalently captured by a protein G surface that was itself amine linked to a proprietary CM5 chip. The chip surface was regenerated between cycles by paired 40 second injections of 10 mM Glycine pH 2.0 to remove ligand and bound antibody. The test antibody was then reapplied for each peptide injection.
A series of dilutions of synthetic human Amyloid beta 1-42 peptide (0.063-1024 nM) were sequentially passed over the antibody surface for a sufficient amount of time to observe sensorgrams that could be fitted to an appropriate binding model with confidence. […]
The validity of the data was assessed using the calculated Chi^2 value, with an acceptable value being under 2 RU^2. […]

[2] = system: human Abeta peptides (Abeta 1-42, Abeta 1-43, Abeta 1-16, Abeta 12-28, Abeta 17-42, Abeta pyro-3-42, Abeta pyro-11-42); experiment: HTRF competition binding experiments with panel of Abeta peptides; settings: competitor 10 uM down to 0.17 nM; antibody 0.5 nM
Procedure: The specificity of Abet0380-GL IgG1-TM was examined in competition binding experiments. In brief Abet0380-GL IgG1-TM (0.5 nM) was incubated (1 hr at room temperature) with a range of different concentrations (10 uM down to 0.17 nM) of a panel of full length, truncate and pyro human Abeta peptides (Abeta 1-42, Abeta 1-43, Abeta 1-16, Abeta 12-28, Abeta 17-42, Abeta pyro-3-42, or Abeta pyro-11-42).
Following the incubation between Abet0380-GL IgG1-TM and the Abeta peptides N-terminal biotin Abeta 1-42 (1.5 nM) was added followed by a europium cryptate labelled anti-human Fc antibody (0.8 nM) (CisBio Cat. No. 61HFCKLB) and streptavidin-XL^entl (5 nM) (CisBio Cat. No. 611SAXLB). The assay was then incubated for a further 2 hrs at room temperature before reading on an Envision plate reader (PerkinElmer) using a standard homogeneous time resolved fluorescence (HTRF) read protocol. In the absence of competition, the interaction of N-terminal biotin Abeta 1-42 with Abet0380-GL IgG1-TM (in complex with streptavidin-XL^entl and europium cryptate labelled anti-human Fc antibody, respectively) could then be measured via time resolved fluorescence resonance energy transfer (TR-FRET) due to the proximity of the europium cryptate donor and XL^665 acceptor fluorophores. […]

T1 sequence (P05067 672-713): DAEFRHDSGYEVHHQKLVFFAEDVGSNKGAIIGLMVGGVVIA

B1: Abet0380-GL IgG1-TM: germlined Abet0380; VH SEQ ID NO: 524, VL SEQ ID NO: 533; human IgG1 triple mutant format (antibody, listed as Homo sapiens, V domains shown)
VH: EVQLLESGGGLVQPGGSLRLSCAASMGNFNYQTMWWVRQAPGKGLEWVSVIGKTNENIAYADSVKGRFTISRDNSKNTLYLQMNSLRAEDTAVYYCAREWMDHSRPYYYYGMDVWGQGTLVTVSS
VL: SYELTQPPSVSVSPGQTASITCSGHNLEDKFASWYQQKPGQSPVLVIYRDDKRPSGIPERFSASNSGHTATLTISGTQAMDEADYYCSSQDTVTRVFGGGTKLTVL
modifications: human IgG1 triple mutant constant region; /note=“Abet0380-GL”
notes: germlined Abet0380; human IgG1 triple mutant format
[1]
  association rate constant (ka): 952000 M⁻¹ s⁻¹
  dissociation rate constant (kd): 0.000307 s⁻¹
[2]
  inhibition of antibody : N-terminal Biotin Abeta 1-42 binding by Abeta 1-16 or Abeta 12-28: No inhibition
